These results are taken from patent publication US20130005646A1 (Novo Nordisk, published 2013).

Test [1] concerns the target T1, human amylin 3(a) receptor (human calcitonin receptor + RAMP-3) (human, UniProt P30988 25-474; O60896 24-148).
T1 sequence (looked up) 1: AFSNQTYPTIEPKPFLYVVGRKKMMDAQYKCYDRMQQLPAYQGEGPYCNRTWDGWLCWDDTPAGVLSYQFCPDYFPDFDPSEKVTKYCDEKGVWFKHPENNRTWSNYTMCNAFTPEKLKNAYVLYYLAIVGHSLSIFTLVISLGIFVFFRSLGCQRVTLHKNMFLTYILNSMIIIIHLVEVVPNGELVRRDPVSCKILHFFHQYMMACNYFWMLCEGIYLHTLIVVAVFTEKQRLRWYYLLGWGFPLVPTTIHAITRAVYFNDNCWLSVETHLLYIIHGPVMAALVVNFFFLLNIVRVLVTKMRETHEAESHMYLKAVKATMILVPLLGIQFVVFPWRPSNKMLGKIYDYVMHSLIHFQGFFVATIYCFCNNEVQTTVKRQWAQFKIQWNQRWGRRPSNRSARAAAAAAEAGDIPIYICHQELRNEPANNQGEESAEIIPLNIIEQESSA
T1 sequence (looked up) 2: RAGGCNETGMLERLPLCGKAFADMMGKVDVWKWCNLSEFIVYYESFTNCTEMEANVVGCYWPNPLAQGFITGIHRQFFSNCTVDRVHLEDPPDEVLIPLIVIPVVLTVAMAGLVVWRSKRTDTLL
The test can be described thus: cell-based or functional assay.

Test [2] deals with T2, human calcitonin (a) receptor (human, UniProt P30988 25-474).
T2 sequence (looked up): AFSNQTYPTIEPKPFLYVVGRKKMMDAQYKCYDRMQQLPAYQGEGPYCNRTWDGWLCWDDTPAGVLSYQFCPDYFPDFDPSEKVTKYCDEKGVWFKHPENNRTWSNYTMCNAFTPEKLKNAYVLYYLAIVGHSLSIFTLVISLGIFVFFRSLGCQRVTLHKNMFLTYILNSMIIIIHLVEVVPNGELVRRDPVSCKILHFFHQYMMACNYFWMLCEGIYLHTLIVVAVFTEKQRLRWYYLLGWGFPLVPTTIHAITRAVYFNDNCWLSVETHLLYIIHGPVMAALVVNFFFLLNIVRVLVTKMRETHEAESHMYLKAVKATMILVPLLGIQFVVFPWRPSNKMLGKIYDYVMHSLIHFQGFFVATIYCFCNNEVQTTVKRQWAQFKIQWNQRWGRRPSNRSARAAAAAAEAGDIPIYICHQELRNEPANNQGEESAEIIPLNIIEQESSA
The test can be described thus: cell-based or functional assay.

Starred links: 1 amine or outer side, 2 acyl side, 3 side chain; linkers in the order of their positions; H or OH if unused. Positions of bridges follow the written chain, without caps; N, C: chain ends. *: point of attachment. C20 diacid = O=C(O)CCCCCCCCCCCCCCCCCCC(=O)*; γGlu = O=C(O)[C@H](CCC(=O)[*:2])N[*:1]

B1: N-alpha-[(S)-4-Carboxy-4-(19-carboxynonadecanoylamino)butyryl]-His-His-[His1,Glu14,His17,His29,His35]-pramlintide (peptide)
peptide: {C20 diacid-γGlu}-HHHCNTATCATQRLAEFLHHSSNNFGPILPHTNVGSHTY-NH2
modifications: disulfide 4-9
SMILES: CC[C@H](C)[C@H](NC(=O)[C@@H]1CCCN1C(=O)CNC(=O)[C@H](Cc1ccccc1)NC(=O)[C@H](CC(N)=O)NC(=O)[C@H](CC(N)=O)NC(=O)[C@H](CO)NC(=O)[C@H](CO)NC(=O)[C@H](Cc1c[nH]cn1)NC(=O)[C@H](Cc1c[nH]cn1)NC(=O)[C@H](CC(C)C)NC(=O)[C@H](Cc1ccccc1)NC(=O)[C@H](CCC(=O)O)NC(=O)[C@H](C)NC(=O)[C@H](CC(C)C)NC(=O)[C@H](CCCNC(=N)N)NC(=O)[C@H](CCC(N)=O)NC(=O)[C@@H](NC(=O)[C@H](C)NC(=O)[C@@H]1CSSC[C@H](NC(=O)[C@H](Cc2c[nH]cn2)NC(=O)[C@H](Cc2c[nH]cn2)NC(=O)[C@H](Cc2c[nH]cn2)NC(=O)CC[C@H](NC(=O)CCCCCCCCCCCCCCCCCCC(=O)O)C(=O)O)C(=O)N[C@@H](CC(N)=O)C(=O)N[C@@H]([C@@H](C)O)C(=O)N[C@@H](C)C(=O)N[C@@H]([C@@H](C)O)C(=O)N1)[C@@H](C)O)C(=O)N[C@@H](CC(C)C)C(=O)N1CCC[C@H]1C(=O)N[C@@H](Cc1c[nH]cn1)C(=O)N[C@H](C(=O)N[C@@H](CC(N)=O)C(=O)N[C@H](C(=O)NCC(=O)N[C@@H](CO)C(=O)N[C@@H](Cc1c[nH]cn1)C(=O)N[C@H](C(=O)N[C@@H](Cc1ccc(O)cc1)C(N)=O)[C@@H](C)O)C(C)C)[C@@H](C)O
As for B1, the “Amylin receptor human EC50” value in test [1] was found to be 0.272 nM. In addition, the “CTa receptor human EC50” value in test [2] turned out to be 0.198 nM.

B2: N-alpha-[(S)-4-Carboxy-4-(19-carboxynonadecanoylamino)butyryl]-His-His-[His1,His3,Glu14,His17,His29,His35]-pramlintide (peptide)
peptide: {C20 diacid-γGlu}-HHHCHTATCATQRLAEFLHHSSNNFGPILPHTNVGSHTY-NH2
modifications: disulfide 4-9
SMILES: CC[C@H](C)[C@H](NC(=O)[C@@H]1CCCN1C(=O)CNC(=O)[C@H](Cc1ccccc1)NC(=O)[C@H](CC(N)=O)NC(=O)[C@H](CC(N)=O)NC(=O)[C@H](CO)NC(=O)[C@H](CO)NC(=O)[C@H](Cc1c[nH]cn1)NC(=O)[C@H](Cc1c[nH]cn1)NC(=O)[C@H](CC(C)C)NC(=O)[C@H](Cc1ccccc1)NC(=O)[C@H](CCC(=O)O)NC(=O)[C@H](C)NC(=O)[C@H](CC(C)C)NC(=O)[C@H](CCCNC(=N)N)NC(=O)[C@H](CCC(N)=O)NC(=O)[C@@H](NC(=O)[C@H](C)NC(=O)[C@@H]1CSSC[C@H](NC(=O)[C@H](Cc2c[nH]cn2)NC(=O)[C@H](Cc2c[nH]cn2)NC(=O)[C@H](Cc2c[nH]cn2)NC(=O)CC[C@H](NC(=O)CCCCCCCCCCCCCCCCCCC(=O)O)C(=O)O)C(=O)N[C@@H](Cc2c[nH]cn2)C(=O)N[C@@H]([C@@H](C)O)C(=O)N[C@@H](C)C(=O)N[C@@H]([C@@H](C)O)C(=O)N1)[C@@H](C)O)C(=O)N[C@@H](CC(C)C)C(=O)N1CCC[C@H]1C(=O)N[C@@H](Cc1c[nH]cn1)C(=O)N[C@H](C(=O)N[C@@H](CC(N)=O)C(=O)N[C@H](C(=O)NCC(=O)N[C@@H](CO)C(=O)N[C@@H](Cc1c[nH]cn1)C(=O)N[C@H](C(=O)N[C@@H](Cc1ccc(O)cc1)C(N)=O)[C@@H](C)O)C(C)C)[C@@H](C)O
For B2, the “Amylin receptor human EC50” value in test [1] turned out to be 1.03 nM. The “CTa receptor human EC50” value in test [2] stood at 0.484 nM.

B3: N-alpha-[(S)-4-Carboxy-4-(19-carboxynonadecanoylamino)butyryl]-[Glu1,Glu14,His17,Arg18]-pramlintide (peptide)
peptide: {C20 diacid-γGlu}-ECNTATCATQRLAEFLHRSSNNFGPILPPTNVGSNTY-NH2
modifications: disulfide 2-7
SMILES: CC[C@H](C)[C@H](NC(=O)[C@@H]1CCCN1C(=O)CNC(=O)[C@H](Cc1ccccc1)NC(=O)[C@H](CC(N)=O)NC(=O)[C@H](CC(N)=O)NC(=O)[C@H](CO)NC(=O)[C@H](CO)NC(=O)[C@H](CCCNC(=N)N)NC(=O)[C@H](Cc1c[nH]cn1)NC(=O)[C@H](CC(C)C)NC(=O)[C@H](Cc1ccccc1)NC(=O)[C@H](CCC(=O)O)NC(=O)[C@H](C)NC(=O)[C@H](CC(C)C)NC(=O)[C@H](CCCNC(=N)N)NC(=O)[C@H](CCC(N)=O)NC(=O)[C@@H](NC(=O)[C@H](C)NC(=O)[C@@H]1CSSC[C@H](NC(=O)[C@H](CCC(=O)O)NC(=O)CC[C@H](NC(=O)CCCCCCCCCCCCCCCCCCC(=O)O)C(=O)O)C(=O)N[C@@H](CC(N)=O)C(=O)N[C@@H]([C@@H](C)O)C(=O)N[C@@H](C)C(=O)N[C@@H]([C@@H](C)O)C(=O)N1)[C@@H](C)O)C(=O)N[C@@H](CC(C)C)C(=O)N1CCC[C@H]1C(=O)N1CCC[C@H]1C(=O)N[C@H](C(=O)N[C@@H](CC(N)=O)C(=O)N[C@H](C(=O)NCC(=O)N[C@@H](CO)C(=O)N[C@@H](CC(N)=O)C(=O)N[C@H](C(=O)N[C@@H](Cc1ccc(O)cc1)C(N)=O)[C@@H](C)O)C(C)C)[C@@H](C)O
In the case of B3, the “Amylin receptor human EC50” value in test [1] was 0.174 nM. Also, the “CTa receptor human EC50” value in test [2] came out at 0.753 nM.

B4: N-alpha-[(S)-4-Carboxy-4-(19-carboxynonadecanoylamino)butyryl]-[Glu1,Glu14,His17]-pramlintide (peptide)
peptide: {C20 diacid-γGlu}-ECNTATCATQRLAEFLHHSSNNFGPILPPTNVGSNTY-NH2
modifications: disulfide 2-7
SMILES: CC[C@H](C)[C@H](NC(=O)[C@@H]1CCCN1C(=O)CNC(=O)[C@H](Cc1ccccc1)NC(=O)[C@H](CC(N)=O)NC(=O)[C@H](CC(N)=O)NC(=O)[C@H](CO)NC(=O)[C@H](CO)NC(=O)[C@H](Cc1c[nH]cn1)NC(=O)[C@H](Cc1c[nH]cn1)NC(=O)[C@H](CC(C)C)NC(=O)[C@H](Cc1ccccc1)NC(=O)[C@H](CCC(=O)O)NC(=O)[C@H](C)NC(=O)[C@H](CC(C)C)NC(=O)[C@H](CCCNC(=N)N)NC(=O)[C@H](CCC(N)=O)NC(=O)[C@@H](NC(=O)[C@H](C)NC(=O)[C@@H]1CSSC[C@H](NC(=O)[C@H](CCC(=O)O)NC(=O)CC[C@H](NC(=O)CCCCCCCCCCCCCCCCCCC(=O)O)C(=O)O)C(=O)N[C@@H](CC(N)=O)C(=O)N[C@@H]([C@@H](C)O)C(=O)N[C@@H](C)C(=O)N[C@@H]([C@@H](C)O)C(=O)N1)[C@@H](C)O)C(=O)N[C@@H](CC(C)C)C(=O)N1CCC[C@H]1C(=O)N1CCC[C@H]1C(=O)N[C@H](C(=O)N[C@@H](CC(N)=O)C(=O)N[C@H](C(=O)NCC(=O)N[C@@H](CO)C(=O)N[C@@H](CC(N)=O)C(=O)N[C@H](C(=O)N[C@@H](Cc1ccc(O)cc1)C(N)=O)[C@@H](C)O)C(C)C)[C@@H](C)O
Consider B4, for which, in test [1], the “Amylin receptor human EC50” value came out at 0.377 nM. In addition, the “CTa receptor human EC50” value in test [2] worked out at 0.657 nM.

B5: N-alpha-[(S)-4-Carboxy-4-(19-carboxynonadecanoylamino)butyryl]-[des1,Glu14,His17]-pramlintide (peptide)
peptide: {C20 diacid-γGlu}-CNTATCATQRLAEFLHHSSNNFGPILPPTNVGSNTY-NH2
modifications: disulfide 1-6
SMILES: CC[C@H](C)[C@H](NC(=O)[C@@H]1CCCN1C(=O)CNC(=O)[C@H](Cc1ccccc1)NC(=O)[C@H](CC(N)=O)NC(=O)[C@H](CC(N)=O)NC(=O)[C@H](CO)NC(=O)[C@H](CO)NC(=O)[C@H](Cc1c[nH]cn1)NC(=O)[C@H](Cc1c[nH]cn1)NC(=O)[C@H](CC(C)C)NC(=O)[C@H](Cc1ccccc1)NC(=O)[C@H](CCC(=O)O)NC(=O)[C@H](C)NC(=O)[C@H](CC(C)C)NC(=O)[C@H](CCCNC(=N)N)NC(=O)[C@H](CCC(N)=O)NC(=O)[C@@H](NC(=O)[C@H](C)NC(=O)[C@@H]1CSSC[C@H](NC(=O)CC[C@H](NC(=O)CCCCCCCCCCCCCCCCCCC(=O)O)C(=O)O)C(=O)N[C@@H](CC(N)=O)C(=O)N[C@@H]([C@@H](C)O)C(=O)N[C@@H](C)C(=O)N[C@@H]([C@@H](C)O)C(=O)N1)[C@@H](C)O)C(=O)N[C@@H](CC(C)C)C(=O)N1CCC[C@H]1C(=O)N1CCC[C@H]1C(=O)N[C@H](C(=O)N[C@@H](CC(N)=O)C(=O)N[C@H](C(=O)NCC(=O)N[C@@H](CO)C(=O)N[C@@H](CC(N)=O)C(=O)N[C@H](C(=O)N[C@@H](Cc1ccc(O)cc1)C(N)=O)[C@@H](C)O)C(C)C)[C@@H](C)O
For B5, the “Amylin receptor human EC50” value in test [1] was found to be 0.179 nM. The “CTa receptor human EC50” value in test [2] was 0.259 nM.
